# The supplement of paper PMC9170038
# System: K4 kissing-loop RNA reporter
# Test: apparent KD of K4 kissing-loop reporter; higher = weaker reporter binding
# Settings: Eterna round: R107; input ligand: FMN 200 uM
# Method: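 RNA-MaP round R107: designed RNA switches with theophylline, tryptophan, arginine or FMN aptamers are transcribed on-chip within common flanks. They are titrated with a labelled K4 kissing-loop RNA reporter in RNA-MaP buffer (100 mM Tris pH 7.5, 80 mM KCl, 4 mM MgCl2), without ligand or with the indicated ligand. Median apparent KD per design.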
# 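Note: bound reporter read as fluorescence of individual clusters on recovered sequencing chips by microscopy, with normalized cluster intensities fitted with a binding model.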
row,Sequence,apparent KD of K4 kissing-loop reporter [nM]
1,GUGAGUGACGGAGGAUAUGCGAUAGAUGUAGGAAAAUUAGUGAUGUUAGUUAUGGUAGAGAUAGAAGUAGAAGGUUGGUGUGUGU [RHig 3/7],551
2,GUGCAGUGAUGUUGCACGAGGAAAGACGAUACCAGCCGUAAAUAAGGCCCUUGGCAGCGUGGGCUAGCAUAAAGCAUGCUAGUCU [Edbemavela],126
3,AAAAUAACCCAGUGAUGUUGGUAUCCAGAUACCAGCGACGAAAGUCGCCCUUGGCAGCUGUGGACGUACAAAAUAAGUACGUCCU,903
4,CCUGCUACGUAAGGAUAUGGAAAUGAGUGAUGUUUAGAGAUAUGGUCCAGGUUUAGUCAUCAUAGACCAGAAGGUACAUCGGGCG [theeternabot_exclusion_KL_FMN_B_8],825
5,GUAUCGCUAGGAGGAUAUUUCAUAUAACAUAUAAAUGGAUAUGCGGAGUGAUGUUCCGAUUUACGGAAAGAAGGCCUAGUGAUAC [FMN B 19],119
6,CAUAGACAAGUGAUGUUUGUCAUAACCGAAGGAGCGUCGUUGAAGACAGGUAGGUCGCGGAUUAAUUAAGAUUAUAUUCUUUUUA [JR_SSArginiA_Sub019],605
7,CGCAAGCAGCCAGUGAUGUUGGCCGCCUUGCGAGGACCGGUACGGCCGCCACUCGAAGGCGGCUACUGAUAAUCCGUCUAACGGA [KL-XTryp-A15],107
8,UGAUUGCCAGUGAUGUUGGCAUAAACUGAAGGAGCGCGUGAAAACGCAGGUAGGUCGCAGUACCAUGCCAAUUGAUCGAAAGAUC [KL-XArg-A2],143
9,UGCCGCAAGGCGAGCGCUCCCACUCCGGAAGGAGCGCCCGCAAGGGCAGGUAGGUCGCCGGAGUGAUGUUCCGGUGGAGGGCUCG [#2 Exclusion - Arginine A Attempt #25 (Inspired by Omei)],201
10,UGUGAACAAAAGUAGAGUGGACCACUAUAGCGAGGACCGGUACGGCCGCCACUCGUGCAUGAAUUCAGUGAUGUUGAAAAGAGCU [whbob_EX_Tryp_A_t12],258
11,AGCUCAGCGUGACUCGAUAAGAGUCACAAACGAGGACCGGUACGGCCGCCACUCGAAAUAAAGGGAGUGAUGUUCUCGCUGAGCA [#SwitchBubble 4 #StaticStem #K4Late],641
12,GCCGUAGAUGGAAGGAGCGUGGUAGACUGUUGAAGUGAUGUUUCAACUCAUUAAGCCCAACCACAGGUAGGUCGCCAUCUACGGC,133
13,UGACAUUGCUCAGAUACCAGACAUGAGCAUCAGCCAUGUGCCAAAUAAACGUACAUAAAUGUCCCUUGGCAGCUGAGCAAUGUCU [TheoBX 11],53
14,UGUGCUGUGUAGUGUAAUGUUAUGCGGGAUACCAGAGUCUUUUUAUUCCCUUGGCAGCUUGAGUGAUGUUUGAUGCUGUUCUUGU [uujmullin],303
15,AAAAUAAGCCAGUGAUGUUGGUGUCCAGAUACCAGCGACGAAAGUCGCCCUUGGCAGCUGUGGACGUACAAAAUAAGUACGUCCU,1030
16,UGGGAUGUUAAAGGAUAUAGCAGGUGAUAUAAGAAAGUGAGUGAUGUUUAUGUAGAUGAUGAUAUGUUAGAAGGUUAACAAAACG [abcdefghi],427
17,AAGGCAUUCAGAAGGAGCGUGGUUUAAUCAUUAAUAUUUUUUACGAGUGAUGUUCGUAAUUCACAGGUAGGUCGCUGAAUAAUAA [JR_ExcArginiB_Sub008],123
18,AAUGUAAUGACGGCCGCCACUGAUUACCAGUGAUGUUGGUAAAGAACUUUAUAAGUCCUGGAAACCAGGACCGGGUCAACGGUCC [Tryp B Ex t1],345

# Same assay, conditions: Eterna round: R107; input ligand: arginine 13.2 mM
row,Sequence,apparent KD of K4 kissing-loop reporter [nM]
1,GUGAGUGACGGAGGAUAUGCGAUAGAUGUAGGAAAAUUAGUGAUGUUAGUUAUGGUAGAGAUAGAAGUAGAAGGUUGGUGUGUGU [RHig 3/7],394
2,GUGCAGUGAUGUUGCACGAGGAAAGACGAUACCAGCCGUAAAUAAGGCCCUUGGCAGCGUGGGCUAGCAUAAAGCAUGCUAGUCU [Edbemavela],97.7
3,AAAAUAACCCAGUGAUGUUGGUAUCCAGAUACCAGCGACGAAAGUCGCCCUUGGCAGCUGUGGACGUACAAAAUAAGUACGUCCU,395
4,CCUGCUACGUAAGGAUAUGGAAAUGAGUGAUGUUUAGAGAUAUGGUCCAGGUUUAGUCAUCAUAGACCAGAAGGUACAUCGGGCG [theeternabot_exclusion_KL_FMN_B_8],321
5,GUAUCGCUAGGAGGAUAUUUCAUAUAACAUAUAAAUGGAUAUGCGGAGUGAUGUUCCGAUUUACGGAAAGAAGGCCUAGUGAUAC [FMN B 19],172
6,CAUAGACAAGUGAUGUUUGUCAUAACCGAAGGAGCGUCGUUGAAGACAGGUAGGUCGCGGAUUAAUUAAGAUUAUAUUCUUUUUA [JR_SSArginiA_Sub019],485
7,CGCAAGCAGCCAGUGAUGUUGGCCGCCUUGCGAGGACCGGUACGGCCGCCACUCGAAGGCGGCUACUGAUAAUCCGUCUAACGGA [KL-XTryp-A15],85.4
8,UGAUUGCCAGUGAUGUUGGCAUAAACUGAAGGAGCGCGUGAAAACGCAGGUAGGUCGCAGUACCAUGCCAAUUGAUCGAAAGAUC [KL-XArg-A2],150
9,UGCCGCAAGGCGAGCGCUCCCACUCCGGAAGGAGCGCCCGCAAGGGCAGGUAGGUCGCCGGAGUGAUGUUCCGGUGGAGGGCUCG [#2 Exclusion - Arginine A Attempt #25 (Inspired by Omei)],188
10,UGUGAACAAAAGUAGAGUGGACCACUAUAGCGAGGACCGGUACGGCCGCCACUCGUGCAUGAAUUCAGUGAUGUUGAAAAGAGCU [whbob_EX_Tryp_A_t12],375
11,AGCUCAGCGUGACUCGAUAAGAGUCACAAACGAGGACCGGUACGGCCGCCACUCGAAAUAAAGGGAGUGAUGUUCUCGCUGAGCA [#SwitchBubble 4 #StaticStem #K4Late],300
12,GCCGUAGAUGGAAGGAGCGUGGUAGACUGUUGAAGUGAUGUUUCAACUCAUUAAGCCCAACCACAGGUAGGUCGCCAUCUACGGC,107
13,UGACAUUGCUCAGAUACCAGACAUGAGCAUCAGCCAUGUGCCAAAUAAACGUACAUAAAUGUCCCUUGGCAGCUGAGCAAUGUCU [TheoBX 11],33.2
14,UGUGCUGUGUAGUGUAAUGUUAUGCGGGAUACCAGAGUCUUUUUAUUCCCUUGGCAGCUUGAGUGAUGUUUGAUGCUGUUCUUGU [uujmullin],305
15,AAAAUAAGCCAGUGAUGUUGGUGUCCAGAUACCAGCGACGAAAGUCGCCCUUGGCAGCUGUGGACGUACAAAAUAAGUACGUCCU,760
16,UGGGAUGUUAAAGGAUAUAGCAGGUGAUAUAAGAAAGUGAGUGAUGUUUAUGUAGAUGAUGAUAUGUUAGAAGGUUAACAAAACG [abcdefghi],258
17,AAGGCAUUCAGAAGGAGCGUGGUUUAAUCAUUAAUAUUUUUUACGAGUGAUGUUCGUAAUUCACAGGUAGGUCGCUGAAUAAUAA [JR_ExcArginiB_Sub008],136
18,AAUGUAAUGACGGCCGCCACUGAUUACCAGUGAUGUUGGUAAAGAACUUUAUAAGUCCUGGAAACCAGGACCGGGUCAACGGUCC [Tryp B Ex t1],294

# Same assay, conditions: Eterna round: R107; input ligand: none
row,Sequence,apparent KD of K4 kissing-loop reporter [nM]
1,GUGAGUGACGGAGGAUAUGCGAUAGAUGUAGGAAAAUUAGUGAUGUUAGUUAUGGUAGAGAUAGAAGUAGAAGGUUGGUGUGUGU [RHig 3/7],561
2,GUGCAGUGAUGUUGCACGAGGAAAGACGAUACCAGCCGUAAAUAAGGCCCUUGGCAGCGUGGGCUAGCAUAAAGCAUGCUAGUCU [Edbemavela],113
3,AAAAUAACCCAGUGAUGUUGGUAUCCAGAUACCAGCGACGAAAGUCGCCCUUGGCAGCUGUGGACGUACAAAAUAAGUACGUCCU,403
4,CCUGCUACGUAAGGAUAUGGAAAUGAGUGAUGUUUAGAGAUAUGGUCCAGGUUUAGUCAUCAUAGACCAGAAGGUACAUCGGGCG [theeternabot_exclusion_KL_FMN_B_8],588
5,GUAUCGCUAGGAGGAUAUUUCAUAUAACAUAUAAAUGGAUAUGCGGAGUGAUGUUCCGAUUUACGGAAAGAAGGCCUAGUGAUAC [FMN B 19],192
6,CAUAGACAAGUGAUGUUUGUCAUAACCGAAGGAGCGUCGUUGAAGACAGGUAGGUCGCGGAUUAAUUAAGAUUAUAUUCUUUUUA [JR_SSArginiA_Sub019],634
7,CGCAAGCAGCCAGUGAUGUUGGCCGCCUUGCGAGGACCGGUACGGCCGCCACUCGAAGGCGGCUACUGAUAAUCCGUCUAACGGA [KL-XTryp-A15],102
8,UGAUUGCCAGUGAUGUUGGCAUAAACUGAAGGAGCGCGUGAAAACGCAGGUAGGUCGCAGUACCAUGCCAAUUGAUCGAAAGAUC [KL-XArg-A2],155
9,UGCCGCAAGGCGAGCGCUCCCACUCCGGAAGGAGCGCCCGCAAGGGCAGGUAGGUCGCCGGAGUGAUGUUCCGGUGGAGGGCUCG [#2 Exclusion - Arginine A Attempt #25 (Inspired by Omei)],174
